The source of these data is patent US20210269546A1 (MOMENTA PHARMACEUTICALS, published 2021).

Assay [1] addresses T1, cynomolgus monkey CD38 (CHO cells stably expressing cyno CD38) (cynomolgus monkey, UniProt Q5VAN0 1-301).
T1 construct: whole, on cells
Nature of the assay: flow cytometry, VivoTag645-labeled, CHO cells stably expressing cyno CD38, 4 °C, 1 hour, gMFI. On the procedure: (§1) FIG. 26. […] Extent of cell surface binding was assessed by flow cytometry. […]
In general terms: Flow cytometry measures light scatter and fluorescence of single cells or particles in a stream.

In assay [2] the target is T2, human CD38 on the cell surface (Raji and other human tumor cell lines) (human, UniProt P28907 1-300).
T2 construct: whole, on cells; also called cell surface CD38
The experiment in a line: flow cytometry, VivoTag645-labeled, human CD38 expressing Raji tumor cells, 4 °C, 1 hour, gMFI. On the procedure: as §1

T1 sequence (Q5VAN0 whole entry): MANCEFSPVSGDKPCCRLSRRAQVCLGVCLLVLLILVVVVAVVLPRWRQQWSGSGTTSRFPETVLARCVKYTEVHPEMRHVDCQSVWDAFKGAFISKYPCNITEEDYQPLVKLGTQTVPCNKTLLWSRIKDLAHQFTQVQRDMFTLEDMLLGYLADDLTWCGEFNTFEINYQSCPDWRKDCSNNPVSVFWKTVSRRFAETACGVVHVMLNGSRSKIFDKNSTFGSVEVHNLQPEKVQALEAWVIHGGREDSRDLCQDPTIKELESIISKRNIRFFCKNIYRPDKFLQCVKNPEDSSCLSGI

B1: S1A-AA-Cyno (anti-Cyno CD38 mAb) (antibody, V domains shown)
VH: QLLESGGGLVQPGGSLRLSCAASGFTFDDYGMSWVRQAPGKGLEWVSDISWNGGKTHYVDSVKGQFTISRDNSKNTLYLQMNSLRAEDTAVYYCARGSLFHDSSGFYFGHWGQGTLVTVSS
VL: QSVLTQPPSASGTPGQRVTISCSGSSSNIGDNYVSWYQQLPGTAPKLLIYRDSQRPSGVPDRFSGSKSGTSASLAISGLRSEDEADYYCQSYDSSLSGSVFGGGTKLTVLG
modifications: VivoTag645 dye label in the flow cytometry assays
notes: Surrogate anti-CD38 human monoclonal IgG1 antibody; VivoTag645-labeled in flow cytometry; also called SIA-AA-Cyno; S1A-AA-Cyno CD38
What is called EC50 (read off the curve) is the concentration giving half of the maximal effect. As for B1, the binding result in assay [1] was “binds”. Further, in assay [2], the “EC50 (read off the curve)” value was about 0.8 nM.
